Test: protease stability score; higher = more stable; yeast display proteolysis, trypsin and chymotrypsin;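 note: relative to predicted unfolded state with 0 unfolded-like and 1 meaning tenfold more protease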

Row | Sequence | protease stability score
1 | SEKDREMEHFAKILISNLVTGDEEEIFRMADPHYRYQQGDKRIHGREEWRQWLREERERVDHIEFKIHRVEQQGEKIHLDWEIQIEIGNYEIKDKTTIIFIVVDGRLKQIEVRHH | 0.786
2 | SEKEDIERKWAERTLETIETGDEHTRRELLDPHVRIIINGKDHHGREFAEEEWRRLGVDHFRTHEYEIQGNFLHVRGEMEIDGKRVEVILNFTIVDGRIKQIEMVYL | 2.03
3 | SEKEEDITRFITMWARYLVTGDEDRSRELLDPSVKMHIGEKNLIGREKLLEFVHRMWRRVDHIHIHFHTIDIQGDKLKVDFEIELRQGDKSDSIRTSMIVDKVDGRWILHKITME | 1.74
4 | SEKEEDLRRAEQDFLREMETGDEHLTSELADPHVRIDIGDKVYHGREFWSKFVRRVKNATIQITHRQYQGDKLWLDGILNVDGRNIRMLVIIHKIDGVWVFKYVDIH | 2.27
5 | SEKEEELHRALRLWLHAWETGDFHTITKLLDPHARSDVNGVELHGREEISRHHRELRTHDMRIRDEKVHMQGDYLIIILHIHTDVQIGDKRIETDLLIIIIHVKVNGRWSLRSISLEFR | 0.035
6 | SEKEEHLHELTRLLVEWFITGDEEDNLEQADPHVRMILIVDGRIIERHGREKLYEEAHRHLKRLGIDHYRIKHVDIQGEKVKINGQLEFNGVIYDARLTFVVINGKLHQEYRSEE | 1.64
7 | SEKEEISRRLLELWLKADATGDEKLLLKLMDPDVRIDVDGVENHGMELVTEFLREERDRIDHKIIEIKEMRVVGDKVHMDIRINIEVNGKENETRVELRLEIIDGKIRSVKIIKR | 0.733
8 | SEKEELDQKFIEDYIRHLLTGDFESLTKMADPNVRLSIDGQNHHGRENFERFAFEWIEKYKNVRIHVRDVHVVDGQAHIIMTLDINGKTREVHIEVFIVNGRIKSNELRYR | 1.36
9 | SEKEEQAFRLFKDIVRSMKTGDEDRLHELFDPNVRMDFNGVESHGRELALEVIRIVWREIRIKNIEVHHIEVIGNYVRIDSRLDGRYDGRRIILEMHVQLVKVDGQWIVHNIEIK | 2.12
10 | SEKEEQARKLAKDWSHDTDTGDFKSIFDLIDPDVRVEIGDKRFVGWELVVKWHEHHRHEFGVTQIRHRVDDMELQGEKVIVRGTLIYDGVDFKVHLILEVINGRIRRVEIRIE | 1.04
11 | SEKEERALELIKRFWESELTGNEDWLRHLADPDYLYILLIDGKEHNFHGMETWYEKINRIKGVQIDHLEIRHENVIGDKVEIDGRMDITVNGKRIDKRVELQYSVVDGRFKSVKITNI | 0.809
12 | SEKEEVLREHARRVTEWWLTGDWEEFMKNMDPNARLQIGDKTSHGREEMYRVLKEIEHRLGVDHIEIKDEKVFNGRNHLDTRLHIGDKSINIRIHIDFVNGRLKFVRIEVD | 1.18
13 | SEKEHIMRRASQLIRDYLITGDWRSLEKLIDPNAQFEVNGRHIHGREEVSRIYLQHLNELGVERIDYIERDSDMQGEKVHTYGDLHVNGVTFHVIIFVLKIDGRWTIKKEIWSDK | 1.15
14 | SEKEKDSRIAIELSLKLVLTGNPEMNRELVDPHARVEVGEKEYHGRDWVRYQLELLGIDHFEIHHVDMYGEYVDVTLELRVGDKSFRLILHLEKIDGRWIVRKVHVD | 2.14
15 | SEKEKILEHFSELWYRLFRTGDEDTLHRMFDPDYRLIYGDKESHGRRLVWIMIAELRIHDWRLRRYHVQGDKAHFDVEVTGEFNGRREHNREEIIITVIDGRATEVEIRID | 0.54
16 | SEKEKLMHDIIEKYMRNLETGNEEEYAKLADPNTRLHYGNKHRVGWKEIVHTLRHWRIHIRDSEIDSIHNIDGQAFVKGKRKGEINVDGVNIDTTFDVDIIINVFDGRLKEIEIRIH | 0.068
17 | SEKEKLSKDLTRLLLEIIMTGDWKALSDNMDPEARQDIGDKHIVGREIISQFKMELDEEAGFKHSEIQRIRIIGDKIEMDVHVDQGDKHHTVHIIVIIVNGRIKHVEVRIR | 2
18 | SEKEKLYKDMFRLWAENHRTGNEKKLLEMADPNAQFIFNGREFHGRELIKEEIDEWINRIKNVRVDIHRVEIQGEKIHVITRLHINGQDLETKVELIIVDGQLHLERIHID | 0.759
19 | SEKERLVLEIYWKIIHSRNTGDEDHWEELADPDMKLTINGVEFHGREATSKFFKEHVKRFGWEFHIHVDRINAFDGRVESHVIIHIQVGDKHIEIEMREEYVVINGVLKEIRILDR | 2.1
20 | SEKERMIREMLEETMRSLKTGDEDSIHRLFDPHTRSEIDGKEYHGREEVSKWVRHARIHDFQLEDVRIQGNKAILIGVMHGRVDGRKFTTEVRIFSVKVDGQWVNENLELH | 0.993
21 | SEKETLDQHIARLWVHYWLTGDEDQLHRLADPNVRSIVDGKHVHGMERMLTELKRMRERFDHMHIEIHDIKVFDGVIHIDTTLHVQINGVHRSWESRIIIYLINGRVHSVEIRIL | 1.16
22 | SEKHEDAHRFYEQYLEALRTGDEDLLTELIDPHVKVEIGDKHYHGRDWMIEILRKRKERFPGLKIIIILRRMHIIGDKVFMDVEVRVHQGEKTETHRFEMIVNKINGRWLVDSIHIE | 2.08
23 | SEKHEEVKRALELEVQLLRTGDEDIYANLADPNTRLLFDGVDIIGMEKVMEWLRFIHEHIRIRDLKIRRVRLIDGQVDVDSQIEGHVGDKHINIKHEIVVEKINGRWYIRSRHWH | 1.52
24 | SEKHEHAHRIMEIILRAWETGDEESLRELLDPNVRFIQGDKDVVGREEMSRVLHEFREHIRLKSIHIHDKHAINGVFHLDIRIWGNVNGRDDHIEVNYTVVIVDGKIRDLEVRIH | 1.06
25 | SEKQKLAEHFAKEFIHSLETGNEEFLEHLADPDTRLEVGDKEIHGMHHLSRWLHEHLHRYKNVRWSIEITSIEVQGDKIIIHGTLHLNIDGVEIRELIVIEIDVVNGRVKSEHRDKL | 1.38

From the NTF2 design screens of Basanta et al. (2020)
